Reference: patent publication US20190135918A1 (ICHNOS SCIENCES, published 2019)

Tests used:
[1] = target: T1, cynomolgus monkey CD3 epsilon 1-26_Fc fusion protein (cynomolgus monkey); experiment: SPR, human IgG1 format, graded relative to chimeric SP34; one grade for human and cynomolgus protein
T1 construct: also called cynomolgus CD3 epsilon 1-26 Fc fusion protein

[2] = target: T2, human CD3 epsilon 1-26_Fc fusion protein (human); experiment: as above
T2 construct: also called human CD3 1-26_Fc fusion protein

| Binder | binding result [1] | binding result [2] |
| --- | --- | --- |
| Chimeric SP34 (antibody, human IgG1, kappa, V domains shown, IgG1; also called chimeric SP34 antibody; SP34 chimera) VH: EVQLVESGGGLVQPKGSLKLSCAASGFTFNTYAMNWVRQAPGKGLEWVARIRSKYNNYATYYADSVKDRFTISRDDSQSILYLQMNNLKTEDTAMYYCVRHGNFGNSYVSWFAYWGQGTLVTVSA VL: QAVVTQESALTTSPGETVTLTCRSSTGAVTTSNYANWVQEKPDHLFTGLIGGTNKRAPGVPARFSGSLIGDKAALTITGAQTEDEAIYFCALWYSNLWVFGGGTKLTVLR | binds | binds |
| VH1/VL3 (antibody, IgG1; SP34 series; also called humanized SP34 VH1/VL3 antibody; copies: 2 + 2) heavy: not shown light: EAVVTQSATLSVSPGERATLSCRSSTGAVTTSNYANWVQEKPGQAFRGLIGGANKRAPGVPARFSGSLSGDEATLTISSLQSEDFAVYFCQLWYSNLWVFGQGTKLEIKRTVAAPSVFIFPPSDEQLKSGTASVVCLLNNFYPREAKVQWKVDNALQSGNSQESVTEQDSKDSTYSLSSTLTLSKADYEKHKVYACEVTHQGLSSPVTKSFNRGEC | no binding (tested: not printed) | no binding (tested: not printed) |
| VH1/VL2 (antibody, human IgG1, kappa, IgG1; SP34 series; copies: 2 + 2) heavy: not shown light: EAVVTQSPATLSVSPGERATLSCRSSTGAVTTSNYANWVQEKPGQAFRGLIGGANKRAPGVPARFSGSLSGDEATLTISSLQSEDFAVYFCALWYSNLWVFGQGTKLEIKRTVAAPSVFIFPPSDEQLKSGTASVVCLLNNFYPREAKVQWKVDNALQSGNSQESVTEQDSKDSTYSLSSTLTLSKADYEKHKVYACEVTHQGLSSPVTKSFNRGEC | binds | binds |
| VH1/VL5 (antibody, human IgG1, kappa, IgG1; also called humanized SP34 VH1/VL5 antibody; copies: 2 + 2) heavy: not shown light: EIVVTQSPATLSVSPGERATLSCRSSTGAVTTSNYANWVQEKPGQAFRGLIGGANKRAPGVPARFSGSLSGDEATLTISSLQSEDFAVYFCALWYSNLWVFGQGTKLEIKRTVAAPSVFIFPPSDEQLKSGTASVVCLLNNFYPREAKVQWKVDNALQSGNSQESVTEQDSKDSTYSLSSTLTLSKADYEKHKVYACEVTHQGLSSPVTKSFNRGEC | binds | binds |
| VH1/VL15 (antibody, human IgG1, kappa, V domains shown, IgG1; also called humanized SP34 VH1/VL15 antibody; copies: 2 + 2) VH: EVQLVESGGGLVQPGGSLRLSCAASGFTFNTYAMNWVRQAPGKGLEWVARIRSKYNNYATYYADSVKGRFTISRDDSKNTLYLQMNSLRAEDTAVYYCVRHGNFGNSYVSWFAYWGQGTTVTVSS VL: EAVVTQSPATLSVSPGERATLSCRSSTGAVTTSNYANWVQQKPGQAFRGLIGGANKRAPGVPARFSGSLSGDEATLTISSLQSEDFAVYFCALWYSNLWVFGQGTKLEIKR | binds | binds |
| VH1/VL22 (antibody, human IgG1, kappa, V domains shown, IgG1; also called humanized SP34 VH1/VL22 antibody; copies: 2 + 2) VH: EVQLVESGGGLVQPGGSLRLSCAASGFTFNTYAMNWVRQAPGKGLEWVARIRSKYNNYATYYADSVKGRFTISRDDSKNTLYLQMNSLRAEDTAVYYCVRHGNFGNSYVSWFAYWGQGTTVTVSS VL: EIVVTQSPATLSVSPGERATLSCRSSTGAVTTSNYANWVQQKPGQAFRGLIGGANKRAPGVPARFSGSLSGDEATLTISSLQSEDFAVYYCALWYSNLWVFGQGTKLEIKR | binds | binds |
| humanized SP34 prototype antibody VH1/VL1 (antibody, human IgG1, kappa, Human IgG1; Printed as 'variable heavy chain and light chain') VH: not shown VL: EAVVTQSPATLSVSPGERATLSCRSSTGAVTTSNYANWVQEKPGQAFRGLIGGANKRAPGVPARFSGSLSGDEATLTISSLQSEDFAVYFCQLWYSNLWVFGQGTKLEIKRTVAAPSVFIFPPSDEQLKSGTASVVCLLNNFYPREAKVQWKVDNALQSGNSQESVTEQDSKDSTYSLSSTLTLSKADYEKHKVYACEVTHQGLSSPVTKSFNRGEC | binds | binds |
| VH1/VL10 (antibody, human IgG1, kappa, IgG1; also called humanized SP34 VH1/VL10 antibody; copies: 2 + 2) heavy: not shown light: EAVVTQSPATLSVSPGERATLSCRSSTGAVTTSNYANWVQEKPGQAFRGLIGGANKRAPGVPARFSGSLSGDEATLTISSLQSEDFAVYYCALWYSNLWVFGQGTKLEIKRTVAAPSVFIFPPSDEQLKSGTASVVCLLNNFYPREAKVQWKVDNALQSGNSQESVTEQDSKDSTYSLSSTLTLSKADYEKHKVYACEVTHQGLSSPVTKSFNRGEC | binds | binds |
| VH1/VL16 (antibody, human IgG1, kappa, IgG1; also called humanized SP34 VH1/VL16 antibody; copies: 2 + 2) heavy: not shown light: EIVVTQSPATLSVSPGERATLSCRSSTGAVTTSNYANWVQEKPGQAFRGLIGGANKRAPGVPARFSGSLSGTEATLTISSLQSEDFAVYFCALWYSNLWVFGQGTKLEIKRTVAAPSVFIFPPSDEQLKSGTASVVCLLNNFYPREAKVQWKVDNALQSGNSQESVTEQDSKDSTYSLSSTLTLSKADYEKHKVYACEVTHQGLSSPVTKSFNRGEC | binds | binds |
| VH1/VL14 (antibody, human IgG1, kappa, V domains shown, IgG1; also called humanized SP34 VH1/VL14 antibody; copies: 2 + 2) VH: EVQLVESGGGLVQPGGSLRLSCAASGFTFNTYAMNWVRQAPGKGLEWVARIRSKYNNYATYYADSVKGRFTISRDDSKNTLYLQMNSLRAEDTAVYYCVRHGNFGNSYVSWFAYWGQGTTVTVSS VL: EAVVTQSPATLSVSPGERATLSCRSSTGAVTTSNYANWVQEKPGQAFRLLIGGANKRAPGVPARFSGSLSGDEATLTISSLQSEDFAVYFCALWYSNLWVFGQGTKLEIKR | no binding (tested: not printed) | no binding (tested: not printed) |
| VH1/VL18 (antibody, human IgG1, kappa, IgG1; also called humanized SP34 VH1/VL18 antibody; copies: 2 + 2) heavy: not shown light: EIVVTQSPATLSVSPGERATLSCRSSTGAVTTSNYANWVQEKPGQAFRGLIGGANKRAPGVPARFSGSLSGDEATLTISSLQSEDFAVYFCALWYSNLWVFGGGTKLEIKRTVAAPSVFIFPPSDEQLKSGTASVVCLLNNFYPREAKVQWKVDNALQSGNSQESVTEQDSKDSTYSLSSTLTLSKADYEKHKVYACEVTHQGLSSPVTKSFNRGEC | binds | binds |
| VH1/VL13 (antibody, human IgG1, kappa, IgG1; also called humanized SP34 VH1/VL13 antibody; copies: 2 + 2) heavy: not shown light: EAVVTQSPATLSVSPGERATLSCRASTGAVTTSNYANWVQEKPGQAFRGLIGGANKRAPGVPARFSGSLSGDEATLTISSLQSEDFAVYFCALWYSNLWVFGQGTKLEIKRTVAAPSVFIFPPSDEQLKSGTASVVCLLNNFYPREAKVQWKVDNALQSGNSQESVTEQDSKDSTYSLSSTLTLSKADYEKHKVYACEVTHQGLSSPVTKSFNRGEC | binds | binds |
| VH1/VL19 (antibody, human IgG1, kappa, V domains shown, IgG1; also called humanized SP34 VH1/VL19 antibody; copies: 2 + 2) VH: EVQLVESGGGLVQPGGSLRLSCAASGFTFNTYAMNWVRQAPGKGLEWVARIRSKYNNYATYYADSVKGRFTISRDDSKNTLYLQMNSLRAEDTAVYYCVRHGNFGNSYVSWFAYWGQGTTVTVSS VL: EIVVTQSPATLSVSPGERATLSCRSSTGAVTTSNYANWVQEKPGQAFRGLIGGANKRAPGVPARFSGSLSGTEATLTISSLQSEDFAVYYCALWYSNLWVFGQGTKLEIKR | binds | binds |
| VH1/VL17 (antibody, human IgG1, kappa, IgG1; also called humanized SP34 VH1/VL17 antibody; copies: 2 + 2) heavy: not shown light: EIVVTQSPATLSVSPGERATLSCRASTGAVTTSNYANWVQEKPGQAFRGLIGGANKRAPGVPARFSGSLSGDEATLTISSLQSEDFAVYFCALWYSNLWVFGQGTKLEIKRTVAAPSVFIFPPSDEQLKSGTASVVCLLNNFYPREAKVQWKVDNALQSGNSQESVTEQDSKDSTYSLSSTLTLSKADYEKHKVYACEVTHQGLSSPVTKSFNRGEC | binds | binds |
| VH1/VL8 (antibody, human IgG1, kappa, V domains shown, IgG1; also called humanized SP34 VH1/VL8 antibody; copies: 2 + 2) VH: EVQLVESGGGLVQPGGSLRLSCAASGFTFNTYAMNWVRQAPGKGLEWVARIRSKYNNYATYYADSVKGRFTISRDDSKNTLYLQMNSLRAEDTAVYYCVRHGNFGNSYVSWFAYWGQGTTVTVSS VL: EAVVTQSPATLSVSPGERATLSCRSSTGAVTTSNYANWVQEKPGQAFRGLIGGANKRAPGVPARFSGSGSGDEATLTISSLQSEDFAVYFCALWYSNLWVFGQGTKLEIKR | binds | binds |
| VH1/VL6 (antibody, human IgG1, kappa, V domains shown, IgG1; also called humanized SP34 VH1/VL6 antibody; copies: 2 + 2) VH: EVQLVESGGGLVQPGGSLRLSCAASGFTFNTYAMNWVRQAPGKGLEWVARIRSKYNNYATYYADSVKGRFTISRDDSKNTLYLQMNSLRAEDTAVYYCVRHGNFGNSYVSWFAYWGQGTTVTVSS VL: EAVVTQSPATLSVSPGERATLSCRSSTGAVTTSNYANWVQEKPGQAPRGLIGGANKRAPGVPARFSGSLSGDEATLTISSLQSEDFAVYFCALWYSNLWVFGQGTKLEIKR | binds | binds |
| VH1/VL21 (antibody, human IgG1, kappa, IgG1 format of the variable domains of m38; also called humanized SP34 VH1/VL21 antibody (IgG1 format); H1L21 IgG1; copies: 2 + 2) heavy: not shown light: EIVVTQSPATLSVSPGERATLSCRSSTGAVTTSNYANWVQEKPGQAFRGLIGGANKRAPGVPARFSGSLSGDEATLTISSLQSEDFAVYYCALWYSNLWVFGQGTKLEIKRTVAAPSVFIFPPSDEQLKSGTASVVCLLNNFYPREAKVQWKVDNALQSGNSQESVTEQDSKDSTYSLSSTLTLSKADYEKHKVYACEVTHQGLSSPVTKSFNRGEC | binds | binds |
| VH1/VL11 (antibody, human IgG1, kappa, V domains shown, IgG1; also called humanized SP34 VH1/VL11 antibody; copies: 2 + 2) VH: EVQLVESGGGLVQPGGSLRLSCAASGFTFNTYAMNWVRQAPGKGLEWVARIRSKYNNYATYYADSVKGRFTISRDDSKNTLYLQMNSLRAEDTAVYYCVRHGNFGNSYVSWFAYWGQGTTVTVSS VL: EAVVTQSPATLSVSPGERATLSCRSSTGAVTTSNYANWVQEKPGQAFRGLIGGANKRAPGVPARFSGSGSGTEATLTISSLQSEDFAVYFCALWYSNLWVFGQGTKLEIKR | binds | binds |
| VH1/VL12 (antibody, human IgG1, kappa, IgG1; also called humanized SP34 VH1/VL12 antibody; copies: 2 + 2) heavy: not shown light: EAVVTQSPATLSVSPGERATLSCRSSTGAVTTSNYANWVQEKPGQAFRGLIGGANKRAPGVPARFSGSLSGTEATLTISSLQSEDFAVYFCALWYSNLWVFGQGTKLEIKRTVAAPSVFIFPPSDEQLKSGTASVVCLLNNFYPREAKVQWKVDNALQSGNSQESVTEQDSKDSTYSLSSTLTLSKADYEKHKVYACEVTHQGLSSPVTKSFNRGEC | binds | binds |
